Test results published in PMC10582422, “Alzheimer's Progenitor Amyloid‐β Targets and Dissolves Microbial Amyloids and Impairs Biofilm Function” (Advanced Science, 2023).

Columns and labels:
E. coli K‐12 = assay: Antimicrobial sensitivity assay (MBEC peg biofilm), K-12; assay type: cell-based; details: combined with Pen
Experimental: (§1) Microbial culture of K12 and PAO1 were added to 96‐well plates at OD 0.3 and incubated overnight at the static condition at 37 °C with Minimum Biofilm Eradication Concentration (MBEC) peg lids (Innovotech, Edmonton, Canada) where biofilms were formed on the pegs. […] After overnight incubation in the challenge plate, peg lids were removed, and swabs of the culture were picked from the pegs and streaked onto LB agar plates. The plates were incubated overnight at 37 °C and surviving colonies were confirmed by visual inspection and counted with the software Promega Colony Counter.

P. aeruginosa PAO1 = assay: Antimicrobial sensitivity assay (MBEC peg biofilm), PAO1; assay type: cell-based; details: combined with Pen
Experimental: as §1

Caco‐2 cells = assay: Cell adhesion of FapC and CsgA amyloids to Caco-2 cells; assay type: cell-based; details: Alexa647-labelled, 10 µM, 24 h
Experimental: In comparison, FapC or CsgA amyloids alone (10 µM), labelled with Alexa647, were incubated with the cells under the same conditions. […] The cells were incubated for additional 24 h. All the cells in this experiment were fixed in 4% PFA, washed with PBS and then subjected to confocal imaging as described above. The size and number of the FapC or CsgA amyloids attached to the membrane of Caco‐2 cells were quantified from the images using Fiji ImageJ software.

Zeta potential = assay type: physicochemical; details: Malvern Zetasizer Nano; fibrils
CsgA fibrils [1] = molecular target: T1, CsgA fibrils (Escherichia coli, UniProt P28307); assay type: biochemical, E. coli
T1 construct: made in house; host or cells: E. coli
T1 sequence (P28307 21-151): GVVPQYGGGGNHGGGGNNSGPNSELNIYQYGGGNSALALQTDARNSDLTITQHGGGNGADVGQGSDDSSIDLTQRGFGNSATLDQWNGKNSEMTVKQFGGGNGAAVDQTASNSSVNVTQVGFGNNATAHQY
Experimental: (§2) The percentage secondary structure was calculated by the CD data via Dichroweb analysis with parameters of Contin/reference set 4.

CsgA fibrils [2] = molecular target: T1, CsgA fibrils; assay type: biochemical, E. coli; details: DLS, incubated without Aβ, as for TEM; n = 3
Experimental: (§3) Quartz cells with low volume capacity (100 µL) were used and measurements were performed using a Malvern Zetasizer Nano Series running DTS software and using a 4 mW He−Ne laser operating at a wavelength of 633 nm and equipped with an avalanche photodiode (APD) detector. The scattered light was detected at an angle of 173°.

FapC fibrils [3] = assay: TEM of FapC fibrils incubated with peptide; assay type: biochemical, P. aeruginosa; details: TEM at 1, 2 and 3 weeks
Description: The samples were blotted with filter paper and grids were blotted twice with deionized water and then a drop of 1% uranyl acetate was placed on the grids for 30 s for negative staining. […] […] TEM grids were imaged with a Hitachi HT7700 TEM operating at 120 kV.

FapC fibrils [4] = assay: ThT assay: disintegration of preformed FapC fibrils; assay type: biochemical, P. aeruginosa; details: 1.8 – 15 µM against 50 µM FapC; ThT 72 h
Experimental: FapC and CsgA fibrils were pre‐incubated with 50 µM of Thioflavin T dye for 3 h. […] The instrument was set to agitate the plate for 5 s before every reading. […]

Aβ = details: cited from earlier work
Description: Amyloid‐β (Aβ) is a peptide generated from the proteolytic cleavage of amyloid precursor protein (APP) expressed on the membrane and synapses of neurons. Based on the combination of enzymes that cleave APP, i.e., α‐, β‐ or γ‐secretase, the resulting Aβ can be a 40 (Aβ40) or 42 (Aβ42) residue peptide that is intrinsically disordered in structure.^[ [1] ^] Different environmental factors, familial mutations or localized concentrations of Aβ can trigger the aggregation of Aβ into oligomers. The oligomers can subsequently assemble into long twisted fibrils characterized by a so‐called amyloid fold ...

FapC fibrils [5] = assay: DLS size of FapC fibrils; assay type: biochemical, P. aeruginosa; details: incubated without Aβ, as for TEM, n = 3
Experimental: as §3

FapC fibrils [6] = assay: CD spectroscopy of FapC fibrils; assay type: biochemical, P. aeruginosa
Experimental: as §2

FapC monomers = assay: Self-seeding / fibrillization of FapC monomers (ThT, TEM); assay type: biochemical, P. aeruginosa; details: FapC monomers 15 µM
[7] = CD, Dichroweb Contin/reference set 4, 50 µM

[H]/N=C(/N)N[C@H]1[C@H](O)[C@@H](O)[C@H](O[C@@H]2O[C@@H](C)[C@](O)(C=O)[C@H]2O[C@@H]2O[C@@H](CO)[C@H](O)[C@@H](O)[C@@H]2NC)[C@@H](N/C(N)=N\[H])[C@@H]1O [Strep]
minimum concentration with slight antimicrobial effect (Strep), K-12 (E. coli K‐12): 5e-06 µg/mL | minimum concentration with slight antimicrobial effect (Strep), PAO1 (P. aeruginosa PAO1): 5e-06 µg/mL

CsgA: CsgA prepared recombinantly in E. coli; major subunit of the curli protein
size of amyloid aggregates attached to Caco-2 membrane, without Aβ (Caco‐2 cells): ≈ 30 µm | zeta potential (Zeta potential): 37 mV | CD negative peak, CsgA fibrils alone (CsgA fibrils [1]; 50 µM CsgA without Aβ, 48 h): 214 nm | β‐sheet content of CsgA fibrils, without Aβ (CsgA fibrils [1]; [7]): 42% | hydrodynamic radius of CsgA fibrils, without Aβ (CsgA fibrils [2]): ≈ 1500 nm

IAPP: human islet amyloid polypeptide (KCNTATCATQRLANFLVHSSNNFGAILSSTNVGSNTY; Islet amyloid polypeptide; UniProt P10997 34-70, looked up)
TEM remodeling of FapC fibrils by IAPP or aSyn monomers (FapC fibrils [3]): no remodeling effect was observed for FapC fibrils | disintegration of FapC amyloids by IAPP or aSyn (FapC fibrils [4]): did not show any disintegration of FapC amyloids

Solanezumab: monoclonal antibody in clinical trials
efficacy in phase 3 trials (Aβ; mild form of Alzheimer's disease, ref [6], [7]): some efficacy but not much promise in phase 3 trials

B1: FapC: FapC prepared recombinantly in E. coli; amyloid protein secreted by P. aeruginosa (protein, UniProt Q9I2F0 25-340, looked up)
Functional amyloid subunit …: GNEGGWHPPKPNPQSNNKGGATALVVDTQQNYNNKVSNFGTLNNASVSGSIKDASGNVGVNVAAGDNNQQANAAALASADASFVFGTATASTSVLQSGYGNTLNNYSNPNTASLSNSANNVSGNLGVNVAAGNFNQQKNDLAAAVSNGQYSTAGSAASQTSTGNTTVNSANYAYGGTYVSLKLNADGSYKGTSDQIGDVYLDTWEGQTHPGGSNTGHIDVDSQAQGAKDLNHDGGAFAFKEKGDVDLKGTVSGFIPAIVGFKTPVTNNASLSNSLQNVSGNVGVNIAAGGGNQQSNSLSIAAGCSSCPAGGESLGF
size of amyloid aggregates attached to Caco-2 membrane, without Aβ (Caco‐2 cells): ≈ 30 µm | zeta potential (Zeta potential): 47 mV | hydrodynamic radius of FapC fibrils, without Aβ (FapC fibrils [5]): ≈ 550 nm | CD negative peak, FapC fibrils alone (FapC fibrils [6]; 50 µM FapC without Aβ, 48 h): 214 nm | random coil content of FapC fibrils, without Aβ (FapC fibrils [6]; [7]): 22% | β‐sheet content of FapC fibrils, without Aβ (FapC fibrils [6]; [7]): 47%

B2: sonicated FapC: Sonicated FapC seeds used as control (protein, UniProt Q9I2F0 25-340, looked up)
Functional amyloid subunit …: GNEGGWHPPKPNPQSNNKGGATALVVDTQQNYNNKVSNFGTLNNASVSGSIKDASGNVGVNVAAGDNNQQANAAALASADASFVFGTATASTSVLQSGYGNTLNNYSNPNTASLSNSANNVSGNLGVNVAAGNFNQQKNDLAAAVSNGQYSTAGSAASQTSTGNTTVNSANYAYGGTYVSLKLNADGSYKGTSDQIGDVYLDTWEGQTHPGGSNTGHIDVDSQAQGAKDLNHDGGAFAFKEKGDVDLKGTVSGFIPAIVGFKTPVTNNASLSNSLQNVSGNVGVNIAAGGGNQQSNSLSIAAGCSSCPAGGESLGF
modifications: sonicated fibril seeds
notes: Sonicated FapC seeds used as control
self-seeding of FapC monomers by sonicated seeds (FapC monomers): a significant increase in ThT kinetics was observed

B3: Lecanemab: humanized IgG1 monoclonal antibody that binds with soluble protofibrils of Aβ (antibody, chains of the INN, looked up, V domains shown)
VH: EVQLVESGGGLVQPGGSLRLSCSASGFTFSSFGMHWVRQAPGKGLEWVAYISSGSSTIYYGDTVKGRFTISRDNAKNSLFLQMSSLRAEDTAVYYCAREGGYYYGRSYYTMDYWGQGTTVTVSS
VL: DVVMTQSPLSLPVTPGAPASISCRSSQSIVHSNGNTYLEWYLQKPGQSPKLLIYKVSNRFSGVPDRFSGSGSGTDFTLRISRVEAEDVGIYYCFQGSHVPPTFGPGTKLEIK
efficacy in phase 2 clinical trials (Aβ; early onset Alzheimer's disease, ref [8]): limited improvement in cognition and reduced Aβ burden
